From article doi:10.1101/749176, “ZapA tetramerization is required for midcell localization and ZapB interaction in Escherichia coli” (bioRxiv, 2019)

Tests used:
mKO-PBP1a = biological target: T1, mKO-PBP1a (Escherichia coli, UniProt P02918 1-850); assay: FRET or BRET; in vivo FRET in E. coli TB28 ΔzapA cells, mKO donor and mCh acceptor fusions expressed from plasmids; energy transfer efficiency (EfA) from unmixed emission spectra; settings: partners not purified
T1 construct: PBP1a, inner membrane (IM) protein, Escherichia coli; Negative control partner of the FRET assay; source: E. coli TB28 ΔzapA, expressed from plasmid, in living cells
T1 sequence (looked up): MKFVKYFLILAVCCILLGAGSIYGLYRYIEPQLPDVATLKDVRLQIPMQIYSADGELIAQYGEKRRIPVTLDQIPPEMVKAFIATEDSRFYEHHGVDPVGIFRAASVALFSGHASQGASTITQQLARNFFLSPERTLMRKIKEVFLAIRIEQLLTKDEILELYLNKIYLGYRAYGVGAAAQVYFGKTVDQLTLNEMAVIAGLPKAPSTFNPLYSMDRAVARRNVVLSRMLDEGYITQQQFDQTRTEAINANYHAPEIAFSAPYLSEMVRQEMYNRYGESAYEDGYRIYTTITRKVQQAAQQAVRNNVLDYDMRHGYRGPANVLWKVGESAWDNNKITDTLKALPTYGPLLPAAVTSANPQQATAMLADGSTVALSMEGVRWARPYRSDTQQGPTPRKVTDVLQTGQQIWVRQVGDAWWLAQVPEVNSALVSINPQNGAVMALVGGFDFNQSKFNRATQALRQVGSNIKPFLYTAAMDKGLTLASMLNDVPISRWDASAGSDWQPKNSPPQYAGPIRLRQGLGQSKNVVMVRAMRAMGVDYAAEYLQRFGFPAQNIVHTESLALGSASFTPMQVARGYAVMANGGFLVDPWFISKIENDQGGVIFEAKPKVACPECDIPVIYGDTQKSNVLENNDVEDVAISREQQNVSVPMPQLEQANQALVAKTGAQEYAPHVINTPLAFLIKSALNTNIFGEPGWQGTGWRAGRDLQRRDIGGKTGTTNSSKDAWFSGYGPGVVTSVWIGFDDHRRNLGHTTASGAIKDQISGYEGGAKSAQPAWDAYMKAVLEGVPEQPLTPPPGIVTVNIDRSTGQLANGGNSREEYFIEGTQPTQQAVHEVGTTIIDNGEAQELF

mKO-FtsZ = biological target: T2, mKO-FtsZ (Escherichia coli, UniProt P0A9A6 1-383); assay: as above; settings: partners not purified
T2 construct: FtsZ, Escherichia coli; also called Filamenting temperature sensitive Z; source: E. coli TB28 ΔzapA or WT strain, expressed from plasmid, in living cells
T2 sequence (looked up): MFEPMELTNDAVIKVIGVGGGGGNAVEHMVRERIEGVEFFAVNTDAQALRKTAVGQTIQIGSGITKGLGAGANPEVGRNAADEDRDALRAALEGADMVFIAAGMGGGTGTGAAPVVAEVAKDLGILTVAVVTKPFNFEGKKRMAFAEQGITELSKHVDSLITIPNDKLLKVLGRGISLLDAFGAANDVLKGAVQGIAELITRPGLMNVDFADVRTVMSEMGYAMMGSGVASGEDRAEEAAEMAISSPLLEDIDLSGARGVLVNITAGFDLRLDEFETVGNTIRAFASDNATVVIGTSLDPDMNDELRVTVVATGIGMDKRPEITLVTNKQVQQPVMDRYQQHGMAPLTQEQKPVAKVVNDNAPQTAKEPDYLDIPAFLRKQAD

B1: mCh-PBP1b (natural protein, Escherichia coli, UniProt P02919 1-844, looked up)
chain: MAGNDREPIGRKGKPTRPVKQKVSRRRYEDDDDYDDYDDYEDEEPMPRKGKGKGKGRKPRGKRGWLWLLLKLAIVFAVLIAIYGVYLDQKIRSRIDGKVWQLPAAVYGRMVNLEPDMTISKNEMVKLLEATQYRQVSKMTRPGEFTVQANSIEMIRRPFDFPDSKEGQVRARLTFDGDHLATIVNMENNRQFGFFRLDPRLITMISSPNGEQRLFVPRSGFPDLLVDTLLATEDRHFYEHDGISLYSIGRAVLANLTAGRTVQGASTLTQQLVKNLFLSSERSYWRKANEAYMALIMDARYSKDRILELYMNEVYLGQSGDNEIRGFPLASLYYFGRPVEELSLDQQALLVGMVKGASIYNPWRNPKLALERRNLVLRLLQQQQIIDQELYDMLSARPLGVQPRGGVISPQPAFMQLVRQELQAKLGDKVKDLSGVKIFTTFDSVAQDAAEKAAVEGIPALKKQRKLSDLETAIVVVDRFSGEVRAMVGGSEPQFAGYNRAMQARRSIGSLAKPATYLTALSQPKIYRLNTWIADAPIALRQPNGQVWSPQNDDRRYSESGRVMLVDALTRSMNVPTVNLGMALGLPAVTETWIKLGVPKDQLHPVPAMLLGALNLTPIEVAQAFQTIASGGNRAPLSALRSVIAEDGKVLYQSFPQAERAVPAQAAYLTLWTMQQVVQRGTGRQLGAKYPNLHLAGKTGTTNNNVDTWFAGIDGSTVTITWVGRDNNQPTKLYGASGAMSIYQRYLANQTPTPLNLVPPEDIADMGVDYDGNFVCSGGMRILPVWTSDPQSLCQQSEMQQQPSGNPFDQSSQPQQQPQQQPAQQEQKDSDGVAGWIKDMFGSN
notes: PBP1b, Escherichia coli; Negative control of the FRET assay; source: E. coli TB28 ΔzapA, expressed from plasmid, in living cells
In the case of B1, the “energy transfer efficiency (EfA)” value (mKO-PBP1a) is reported as under 1.7%.

B2: mCh-ZapA (wild type ZapA fused to mCh) (natural protein, Escherichia coli, UniProt P0ADS2 1-109, looked up)
chain: MSAQPVDIQIFGRSLRVNCPPDQRDALNQAADDLNQRLQDLKERTRVTNTEQLVFIAALNISYELAQEKAKTRDYAASMEQRIRMLQQTIEQALLEQGRITEKTNQNFE
notes: ZapA (Z associated protein A), Escherichia coli; zapA in plasmid pSAV077; also called mCh-ZapA^WT; ZapA^WT; source: E. coli TB28 ΔzapA or WT strain, expressed from plasmid, in living cells
For B2, the “energy transfer efficiency (EfA)” value (mKO-PBP1a) was under 1.7% and the “energy transfer efficiency (EfA)” value (mKO-FtsZ) was 4%.

B3: mCh-ZapA^I83E (dimeric ZapA mutant fused to mCh) (natural protein, Escherichia coli, UniProt P0ADS2 1-109, looked up)
chain: MSAQPVDIQIFGRSLRVNCPPDQRDALNQAADDLNQRLQDLKERTRVTNTEQLVFIAALNISYELAQEKAKTRDYAASMEQRERMLQQTIEQALLEQGRITEKTNQNFE
notes: ZapA (Z associated protein A), Escherichia coli, with I83E; zapA of pSAV077 exchanged for zapA^I83E from pRP071; source: E. coli TB28 ΔzapA or WT strain, expressed from plasmid pNM137, in living cells
With B3 the “energy transfer efficiency (EfA)” value (mKO-PBP1a) was under 1.7%.
